Literature values in publication PMC11394293.

Target: s-Klotho KL1/KL2 (Homo sapiens) (UniProt Q9UEF7)
Sequence of UniProt Q9UEF7 (Q9UEF7 34-981): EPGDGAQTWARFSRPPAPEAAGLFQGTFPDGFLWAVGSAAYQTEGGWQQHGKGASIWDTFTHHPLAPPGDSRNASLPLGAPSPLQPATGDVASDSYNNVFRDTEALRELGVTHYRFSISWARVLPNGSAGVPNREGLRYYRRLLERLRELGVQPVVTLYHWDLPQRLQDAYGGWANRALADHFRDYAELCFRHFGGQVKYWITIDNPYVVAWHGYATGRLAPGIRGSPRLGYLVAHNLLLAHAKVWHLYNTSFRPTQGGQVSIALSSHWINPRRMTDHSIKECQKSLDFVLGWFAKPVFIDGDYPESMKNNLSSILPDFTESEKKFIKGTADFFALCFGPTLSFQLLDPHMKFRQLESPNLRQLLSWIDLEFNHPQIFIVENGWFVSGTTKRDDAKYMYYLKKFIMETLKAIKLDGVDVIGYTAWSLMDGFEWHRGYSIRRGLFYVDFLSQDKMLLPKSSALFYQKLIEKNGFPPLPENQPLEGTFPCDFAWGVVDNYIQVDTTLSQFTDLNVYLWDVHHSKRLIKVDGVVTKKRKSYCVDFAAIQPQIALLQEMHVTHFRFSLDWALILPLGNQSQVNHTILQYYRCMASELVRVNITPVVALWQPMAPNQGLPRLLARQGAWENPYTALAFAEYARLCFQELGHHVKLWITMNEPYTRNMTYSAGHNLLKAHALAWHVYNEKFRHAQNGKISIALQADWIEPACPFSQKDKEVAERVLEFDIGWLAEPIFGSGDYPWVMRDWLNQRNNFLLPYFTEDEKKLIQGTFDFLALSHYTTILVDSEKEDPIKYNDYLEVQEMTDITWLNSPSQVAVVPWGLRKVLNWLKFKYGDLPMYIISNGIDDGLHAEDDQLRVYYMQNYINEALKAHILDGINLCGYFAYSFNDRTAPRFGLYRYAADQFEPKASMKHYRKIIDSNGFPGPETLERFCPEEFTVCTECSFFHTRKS

FGF23 (from UniProt Q9GZV9)
Kd: 14 nM
